Three substances from patent US20080152587A1 can be followed below.

mouse uPAR on the surface of NCTC L929 cells (mouse), sequence (P35456 24-298): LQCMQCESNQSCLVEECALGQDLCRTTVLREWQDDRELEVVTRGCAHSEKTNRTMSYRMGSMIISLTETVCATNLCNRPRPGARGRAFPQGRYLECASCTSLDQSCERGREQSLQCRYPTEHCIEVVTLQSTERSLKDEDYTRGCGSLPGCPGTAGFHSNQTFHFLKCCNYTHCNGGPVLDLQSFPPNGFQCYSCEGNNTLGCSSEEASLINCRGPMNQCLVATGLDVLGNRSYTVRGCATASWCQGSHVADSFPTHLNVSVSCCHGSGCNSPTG

The assay addresses mouse uPAR on the surface of NCTC L929 cells (mouse) (UniProt P35456). As to the kind of experiment: FACS, NCTC L929 mouse cells, secondary alone. Background: Flow cytometry measures light scatter and fluorescence of single cells or particles in a stream.
In the case of “secondary antibody alone for rat antibodies”, the X Geo mean is 13.1.

Take “secondary antibody alone, Cy5-labeled goat anti-human IgG Fc”: the X Geo mean was 7.63.

Take “secondary antibody alone for mouse antibodies”: the X Geo mean worked out at 3.22.
